Data taken from patent publication US20200223906A1 (Adimab, published 2020).

Legend:
[1] = molecular target: RSV F protein of subtype B (18537) on recombinant mKate-RSV virus (Respiratory syncytial virus subtype B …, UniProt P13843 26-574); test: cell-based or functional assay
[2] = molecular target: RSV F protein of subtype A (strain A2) on recombinant mKate-RSV virus (Respiratory syncytial virus subtype A …, UniProt P03420 26-574); test: cell-based or functional assay
[3] = molecular target: T1, RSV F subtype B, furin-cleaved ectodomain stabilized in the postfusion conformation (F ΔFP) (Respiratory syncytial virus subtype B); test: BLI, IgG on AHQ sensor, 100 nM antigen
T1 construct: extracellular domain; Trimeric soluble antigen; also called Postfusion subtype B

[4] = molecular target: T2, RSV F subtype A, furin-cleaved ectodomain stabilized in the postfusion conformation (F ΔFP) (Respiratory syncytial virus subtype A, UniProt P03420 26-109; P03420 147-524); test: BLI, IgG on AHQ sensor, 100 nM antigen
T2 construct: extracellular domain; Trimeric soluble antigen; also called Postfusion subtype A

[5] = molecular target: T3, RSV F subtype A, furin-cleaved ectodomain stabilized in the prefusion conformation (DS-Cav1) (Respiratory syncytial virus subtype A, UniProt P03420 26-524); test: BLI, IgG on AHQ sensor, 100 nM antigen
T3 construct: extracellular domain; Trimeric soluble antigen; also called Prefusion subtype A

[6] = molecular target: T4, RSV F subtype B, furin-cleaved ectodomain stabilized in the prefusion conformation (DS-Cav1) (Respiratory syncytial virus subtype B); test: BLI, IgG on AHQ sensor, 100 nM antigen
T4 construct: extracellular domain; Trimeric soluble antigen; also called Prefusion subtype B

Row | Binder | Neut IC50 (µg/ml) subtype B [1] | Neut IC50 (µg/ml) subtype A [2] | Kd [3] | Kd [4] | Kd [5] | Kd [6]
1 | ADI-18933 (antibody, V domains shown, full-length IgG from yeast) VH: QVQLVESGAEVKKPGASVKVACTASGYAFTNYNIHWVRLAPGQGLEWMAIINPGSGGTDYSEKFQGRLTLTSDTSTSTVYMTLGSLRYEDTAFYYCARRGYPDSGSYPLDYWGQGTLVTVSS VL: DIVMTQSPSSLSASLGDRVTITCRAGRSIATYLNWYQQKPGKAPKLLIYGASSLQSGVPSRFSGSGSGTHFTLTISSLQPEDFATYYCQQSYIRPITFGGGTKVEIK | 0.137 µg/mL | 0.075 µg/mL | 0.616 nM | 20 nM | – | –
2 | ADI-18941 (antibody, V domains shown, full-length IgG from yeast) VH: EVQLVESAAEVKKPGESLKISCKGSGYSFASHWIGWVRQMPGKGLELMGFIYPGDSDTRYNPSFQGQVTISADKSISTAYLQWTRLKASDTAMYYCGQAVAGGEYFHHWGQGTLVTVSS VL: DIVMTQSPATLSVSPGERATLSCRASQSLGSDLAWYQQKPGQTPRLLIYDASTRATGIPARFSGSGSGTEFTLTISSLQSEDFAVYYCQHYNNWPRGFGQGTKVEIK | > 10 µg/mL | > 10 µg/mL | 0.645 nM | 19.1 nM | – | –
3 | ADI-18942 (antibody, V domains shown, full-length IgG from yeast; also called Antibody Number 295; Ab # 295) VH: QVQLQESGPGRVKPSQTLSLTCTVSGVSVTINDYYWTWLRQSPGKGLEWIGNIYNSGSTYQNPSLQSRVTMSVDTAKNHFSLKLTSVTAADTAVYYCARDLGTANNYYFGMDVWGLGTTVTVSS VL: EIVMTQSPATLSLSPGERATLSCRASQSVSTYLAWYQQKPGQAPRLLIYNGSNRVTGTPARFSGSGSGTDFTLTISSVEPEDFAVYYCQQRSNWPPYTFGQGTKVEIK | 0.614 µg/mL | 0.374 µg/mL | 0.258 nM | 0.281 nM | 0.865 nM | 0.512 nM
4 | ADI-18924 (antibody, V domains shown, full-length IgG from yeast) VH: QVQLVQSGAEVKKPGESLKISCQGSGYSFSSFWIVWVRQMPGKGLEWMGSIYPGDSDTRYTPSFQGQVTISADKSTSTAYLQWNSLKPSDTAMYYCARCSLSCDYYGVNLWGQGTTVTVSS VL: QSVVTQPPSVSGAPGQRVTISCSGSSSNIGARSDVHWYQQLPGKAPKLLIYGNTNRPLGVPDRFSGSTSGTSASLAISGLQAEDEGYYYCQSYDSSLSGFYVFGTGTKLTVL | 1.07 µg/mL | 0.572 µg/mL | 0.321 nM | 0.411 nM | 6.48 nM | –
5 | ADI-18947 (antibody, V domains shown, full-length IgG from yeast) VH: QVQLVQSGGGVVQSGRSLRLSCAASGFTFSDNGMHWVRQAPGKGLEWVAGIFHDGSNKQYAESVKGRFIISRDNSKNTLYLQMNSLRAEDTALYFCARAPYDIWSGYCLDYWGQGTLVTVSS VL: DIRMTQSPATLSLSPGESATLSCRASQSVINNLAWYQQRPGQAPRLLIYGASTRATGIPARFSGSGSETEFTLTISSLQSEDFAVYHCQQYSIWPQTFGQGTKLEIK | 3.6 µg/mL | 1.3 µg/mL | 0.282 nM | 0.296 nM | 2.45 nM | 2.2 nM
6 | ADI-18896 (antibody, V domains shown, full-length IgG from yeast) VH: EVQLLESGGGVVQSGRSLRLSCAASGFTFSDNGMHWVRQAPGKGLEWVAGIFYDGSNKQYADSVKGRFTISRDNSKSTLYLQMNSLRAEDTAVYYCARAPYDIWSGYCLDYWGQGTLVTVSS VL: DIQMTQTPATLSMSPGERATLSCRASQSVNNNLAWYQQRPGQAPRLLIYGASTRATGIPARFSGSGSETEFTLTISSLQSEDFAVYHCQQYSIWPQTFGQGTKLEIK | 4.72 µg/mL | 1.1 µg/mL | 0.27 nM | 0.279 nM | 2.27 nM | 1.81 nM
7 | ADI-18895 (antibody, V domains shown, full-length IgG from yeast; also called Antibody Number 250; Ab # 250) VH: QVQLVQSGPEVKKTRESLKIYCKGSGYSFISHWIGWVRQKPGKGLEWMGIIYPGDSDTRYSPSFQGQVAISADKSINTAYLQWSSLKSSDTAIYYCASVMLRGIMWGQGTLVTVSS VL: DIRLTQSPSSLSASVGDRVTITCQASQDISKYLNWYQQKPGKAPKLLIYDASNLETGVPSRFSGSGSGTDFTFTISSLQPEDIATYYCQPYDNLPPPLTFGGGTKLEIK | > 10 µg/mL | 2.3 µg/mL | 0.486 nM | 2.37 nM | – | –
8 | ADI-18946 (antibody, V domains shown, full-length IgG from yeast) VH: QVQLVQSGGGVVQPGRSLRLSCAASGFTFSDYAMHWVRQAPGKGLEWVAIISYDANNKYYADSVKGRFTISRDNSKNTVYLQMNSLRPEDTAVYYCAKEEWLVPAYWGQGILVTVSS VL: QSVLTQPASVSGSPGQSITISCTGTSSDVGGYNYVSWYQQHPGKAPKLLIYEVSNRPSGVSNRFSGSKSGNTASLTISGLQPEDEADYYCSSYSTNSAPFGTGTKLTVL | 0.227 µg/mL | 0.093 µg/mL | 0.166 nM | 0.206 nM | 0.158 nM | 0.157 nM
9 | ADI-18887 (antibody, V domains shown, full-length IgG from yeast; also called Antibody Number 242; Ab # 242) VH: QVQLVQSGAEVKRPGSSVKVSCKASGGTFSSYALSWVRQAPGQGLEWIGGIIPMHRVTNYAQKFRGRVTISADTSTSTAYLEVNSLRVEDTAMYYCARVFFGTCGGASCFPSDLWGQGTLVTVSS VL: EIVLTQSPSFVSASVGDGVTITCRASQAISSYLAWYQQKPGQAPKLLIYAASTLQGGVPSRFSGSGSGTHFTLTISSLQPEDFATYYCQQLHSDFQTFGPGTKVEIK | > 10 µg/mL | 1.11 µg/mL | 0.549 nM | – | – | 12.2 nM
10 | ADI-18897 (antibody, V domains shown, full-length IgG from yeast) VH: EVQLVESGGGLVQPGGSLRLSCAASGFTIGTYWMSWVRQAPGKGLEWVANIKPDGSEQYYGDSVKGRFTISRDNAKNSLYLQMHSLRAEDAAVFYCARDTPDVLRHLEWPPVGAFDIWGQGTTVTVSS VL: EIVMTQSPDSLAVSLGERATINCKSSQSLFYSSTNQHYLAWYQQKPGQPPELLIYWASIRESGVPDRFSGSGSGTDFTLTISSLQAADVAVYYCQQYYSSPQTFGQGTKVEIK | 0.762 µg/mL | 0.288 µg/mL | 0.185 nM | – | – | 1.53 nM
11 | ADI-18938 (antibody, V domains shown, full-length IgG from yeast; also called Antibody Number 291; Ab # 291) VH: EVQLLESGGGLVQPGGSLRLSCAASGFTFSNYWMHWVRQAPGKGLVWVSRISGDGSDTTYADSVEGRFTISRDNARSTLYLQLNSLTGDDTAVYYCARDLWTTSPYFDLWGQGTLVTVSS VL: EIVLTQSPGTLSASIGDRVTITCRASQSLNGWLAWYQQKPGKAPRLLIYKSSSLESGVPSRFSGSASGTEFTLTISSLQPDDFATYYCQQYNSWAFGQGTKVDVK | 4.25 µg/mL | 0.837 µg/mL | 0.168 nM | 0.216 nM | 0.165 nM | 0.15 nM
12 | ADI-18918 (antibody, V domains shown, full-length IgG from yeast) VH: QVQLVQSGAEVKKPGESLKISCKGSGYSFSSFWIGWVRQMPGKGLEWMGIIYPGDSDTRYSPSFQGQVTMSADTSINTAYLQWNSVKASDTAIYYCARLPVGSYYYFNLWGRGTLVTVSS VL: EIVMTQSPATLSVSPGESATLFCRASQSISSDLAWYQQRPGQAPRLLIYDASTRATGVPARFSATGSEAEFTLTISGLQSEDFAVYYCQQYNNWLSWTFGQGTKLEIK | 4.59 µg/mL | 0.377 µg/mL | 0.409 nM | 0.567 nM | – | –
13 | ADI-18909 (antibody, V domains shown, full-length IgG from yeast; also called Antibody Number 264; Ab # 264) VH: QVQLQESGPGLVKPSQTLSLTCTVSGRFLNSGDYYWSWIRQSPGKGLEWLGYIHHSGNTYYNPSLKSRLTISLDMSKNQFSLKLSSVTAADTAVYYCARDLGKPLWDGHYYYGVDVWGQGTTVTVSS VL: DIVMTQSPGTLSLSPGERATLSCRTSQNVNSNYLAWYQHKPGQAPRLLIYGASSRVTGIPDRFSGSGSGTDFTLTITRVESEDFAVYYCQVYSSSPPITFGQGTKVEIK | 0.169 µg/mL | 0.11 µg/mL | 0.225 nM | – | – | 0.288 nM
14 | ADI-18911 (antibody, V domains shown, full-length IgG from yeast) VH: QVQLVESGAEARKPGESLKISCKASGYSFTNYWIGWVRQMPGKGLEWMGVIYPADSDTRYSPSFKGQVTISADKSISTAYLQWTRLKASDTAVYFCARLGIGAAARNYWGQGTLVTVSS VL: DIQVTQSPSSLSASVGDRVTITCQASQDISDSLNWYQQKPGKAPNLLIYDASKSETGVPSRFSGSGSGTDFTFTISSLQPEDLATYYCLQFDNLPPTFGQGTRLEIK | 4.85 µg/mL | 0.301 µg/mL | 0.28 nM | 0.353 nM | – | –
15 | ADI-18885 (antibody, V domains shown, full-length IgG from yeast; also called Antibody Number 241; Ab # 241) VH: EVQLQESGPGLVKPLQTLSVTCSVSGGSISSGDNYWSWIRQRPGKGLEWIGYIYYSGTTYYNPSLKSRVTISADRSKNQFSLKMNSLSAADTAVYYCARDGGYDHIWGTHRYFALWGQGTLVTVSS VL: ETTLTQSPGTLSLSPGERATLSCRASQSVNSDYLAWYQQKLGQAPRLLIYGVSNRATGIPDRFTGSGSGTDFTLTISRLEPEDFAVYHCQQYGTSPWTFGQGTKVEIK | 8.63 µg/mL | 0.376 µg/mL | 0.307 nM | – | – | 3.89 nM
16 | ADI-18878 (antibody, V domains shown, full-length IgG from yeast; also called Antibody Number 235; Ab # 235) VH: QVQLQESGPRLVKPSQTLSLICDVSGGSIGSGDHYWSWIRQPPGKGLEWIGYIYYSGTTYYNPSLKSRVTISADTSKNQLSLKLSSVTAADTAIYFCARDGGYDHVWGTHRYFDKWGQGTLVTVSS VL: EIVLTQSPGTLSLSPGERATLSCRASQSVSNSYLAWYQQKPGQAPRLLIYGVSTRATGIPDRFSGSGSGTDFTLTISRLEPEDFAMYHCQQYGASPWTFGQGTKVDIK | 8.31 µg/mL | > 10 µg/mL | 0.388 nM | – | – | 5.82 nM
